This series deals with the molecule itself. The series is described as follows: SEC.

B1: TNFR1^R347A death domain (domain or fragment, UniProt P19438 356-441, looked up)
chain: PATLYAVVENVPPLRWKEFVARLGLSDHEIDRLELQNGRCLREAQYSMLATWRRRTPRREATLELLGRVLRDMDLLGCLEDIEEAL
In general, stoichiometry N refers to the number of molecules, sites or subunits per partner or assembly. For the protein B1, the “stoichiometry N” value was found to be 2.

The values above are taken from article doi:10.1101/2024.12.13.628329 (bioRxiv, 2024).
